Here are results for four substances from article PMC2864300, “Regulation of NOXO1 Activity through Reversible Interactions with p22^phox and NOXA1” (PLoS ONE, 2010).

Test [1] has as its target human NOXO1 tandem SH3 domains (SH3AB) (human). Kind of test: ITC; MicroCal VP-ITC, 18°C; 150 mM NaCl, 1 mM DTT, 50 mM HEPES pH 7.4; typically 20–40 µM protein in the cell, 200–300 µM ligand injected; single-site binding model; averaged over three to five experiments.
Test [2] concerns the target human NOXO1 SH3AB–E (tandem SH3 domains plus the C-terminal portion of NOXO1) (human). The description is as above.
Test [3] addresses human NOXO1 SH3AB–E triple mutant (proline residues 323, 326 and 329 to alanine) (human). The description is as above.
Test [4] has as its target mouse NOXO1 tandem SH3 domains (SH3AB) (mouse). The test is described as above.
The target in test [5] is p67phox C-terminal SH3 (Homo sapiens) (UniProt P19878). As to conditions: cited from earlier work.
For test [6], the target named is p22phox cytoplasmic domain (Homo sapiens) (UniProt P13498). As to conditions: cited from earlier work.
Chain of p22phox cytoplasmic domain (Homo sapiens) (P13498 132-195): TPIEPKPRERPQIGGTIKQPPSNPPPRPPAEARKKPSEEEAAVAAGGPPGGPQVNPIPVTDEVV

Chain of p47phox tandem SH3 (P14598 156-285): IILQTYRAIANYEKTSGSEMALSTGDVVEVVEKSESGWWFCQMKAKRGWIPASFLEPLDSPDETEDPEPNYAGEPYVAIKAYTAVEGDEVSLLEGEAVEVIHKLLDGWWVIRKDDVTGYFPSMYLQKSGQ
Chain of p47phox C-terminal proline-rich region (P14598 359-390): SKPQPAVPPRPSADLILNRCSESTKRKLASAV
Chain of p67phox C-terminal SH3 (Homo sapiens) (P19878 457-516): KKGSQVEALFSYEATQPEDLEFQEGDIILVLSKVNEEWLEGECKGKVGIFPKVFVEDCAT

On to “human p22^phox cytoplasmic domain (p22^phoxC) (domain or fragment)”, for which the Kd in test [1] was 0.15 µM; in test [3], 0.53 µM. For the same substance, the dH is -16.8 kcal/mol in test [1], -3.2 kcal/mol in test [2] and -8.1 kcal/mol in test [3].

In test [4], “mouse p22^phox cytoplasmic domain (p22^phoxC) (from UniProt Q61462 127-192) (domain or fragment)” had a Kd of 0.068 µM and a dH of -12.9 kcal/mol.

On to “p47phox C-terminal proline-rich region (from UniProt P14598)”, for which the Kd in test [5] is 0.02 µM.

As for “p47phox tandem SH3 (from UniProt P14598)”, the Kd in test [6] was 0.19 µM.
